Test results reported in paper PMC4765350.

What was measured:
[1] = target: BtuC2D2 (E. coli vitamin B12 ABC transporter, core transporter: ATPase + permease) (E. coli) (UniProt P06609); assay: SPR; fresh (naive) His-BtuC2D2 (1500-2000 RU) immobilised on a Ni-NTA chip, apo FLAG-BtuF injected at 0.1-2 uM; Biacore T200, 25 °C, 50 mM Tris-HCl pH 7.5, 150 mM NaCl, 0.1% LDAO, 15 uL/min
[2] = target: BtuC2D2 (E. coli vitamin B12 ABC transporter, core transporter: ATPase + permease) (E. coli) (UniProt P06609)
[3] = target: BtuC2D2 (E. coli vitamin B12 ABC transporter, core transporter: ATPase + permease) (E. coli) (UniProt P06609); assay: SPR; His-BtuC2D2 that had worked (100 uM ATP, 1 mM MgCl2) for 7 hours, nucleotides removed, immobilised on a Ni-NTA chip; apo FLAG-BtuF injected at 0.1-2 uM; 25 °C, 50 mM Tris-HCl pH 7.5, 150 mM NaCl, 0.1% LDAO

UniProt P06609, sequence (P06609 whole entry, chain 1 of 2): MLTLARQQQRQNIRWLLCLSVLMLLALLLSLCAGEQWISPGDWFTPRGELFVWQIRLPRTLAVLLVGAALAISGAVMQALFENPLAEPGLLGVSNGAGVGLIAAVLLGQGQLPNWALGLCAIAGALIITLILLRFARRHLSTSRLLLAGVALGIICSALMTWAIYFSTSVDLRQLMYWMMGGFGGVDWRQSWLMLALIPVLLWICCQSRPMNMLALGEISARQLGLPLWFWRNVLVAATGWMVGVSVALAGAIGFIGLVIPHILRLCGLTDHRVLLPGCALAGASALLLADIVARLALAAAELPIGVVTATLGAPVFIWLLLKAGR
UniProt P06609, sequence (P06611 whole entry, chain 2 of 2, further chain): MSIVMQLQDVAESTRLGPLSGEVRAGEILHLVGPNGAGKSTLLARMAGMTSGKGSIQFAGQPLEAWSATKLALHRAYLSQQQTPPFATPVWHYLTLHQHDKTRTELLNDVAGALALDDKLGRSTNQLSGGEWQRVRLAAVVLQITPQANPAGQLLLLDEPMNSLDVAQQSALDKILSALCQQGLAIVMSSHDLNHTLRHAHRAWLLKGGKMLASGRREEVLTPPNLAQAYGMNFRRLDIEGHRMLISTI

B1: BtuF, substrate binding protein (SBP) of the vitamin B12 transport system, FLAG-tagged (natural protein)
chain: APRVITLSPANTELAFAAGITPVGVSSYSDYPPQAQKIEQVSTWQGMNLERIVALKPDLVIAWRGGNAERQVDQLASLGIKVMWVDATSIEQIANALRQLAPWSPQPDKAEQAAQSLLDQYAQLKAQYADKPKKRVFLQFGINPPFTSGKESIQNQVLEVCGGENIFKDSRVPWPQVSREQVLARSPQAIVITGGPDQIPKIKQYWGEQLKIPVIPLTSDWFERASPRIILAAQQLCNALSQVD
**Q.** B1 was tested. Which Kd [1] did it give?
**A.** 36 pM

**Q.** And the koff [1]?
**A.** 1.2e-05 s⁻¹

**Q.** What about the kon [1] of the same binder?
**A.** 280000 M⁻¹ s⁻¹

**Q.** What about the uptake rate of 57Co vitamin B12 into proteoliposomes, BtuC2D2 that had worked 7 hours against its fresh precursor [2] of the same binder?
**A.** 60%

**Q.** What about the Kd [3] of the same binder?
**A.** 37 pM

**Q.** What about the improvement of BtuF binding of worked over fresh BtuC2D2 [3] of the same binder?
**A.** 35 to 60%

**Q.** What about the koff [3] of the same binder?
**A.** 1.1e-05 s⁻¹

**Q.** And the kon [3]?
**A.** 290000 M⁻¹ s⁻¹
